The source of these data is the supplement of paper PMC12636428.

The test system of this series is Saccharomyces cerevisiae. Briefly: transcriptional activation domain activity (GFP:mCherry ratio, weighted mean of sorted bins, harmonized to initial dataset scale) (arbitrary fluorescence ratio units); higher = stronger transcriptional activation. The following applies: beta-estradiol 1 µM; induction time 4 h. In outline:
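After a 1:5 dilution into SC with 1 uM beta-estradiol and 4 hours at 30 °C, yeast diploids carrying a GFP reporter and URA3-integrated barcoded tiles were sorted into 8 bins by GFP:mCherry ratio. The tiles were fused to an estradiol-inducible synthetic transcription factor. Barcodes were sequenced, tiles below 50 reads were discarded, and activation activity was taken as the read-weighted mean of bin median fluorescence, averaged across barcodes and linearly mapped onto the initial dataset scale.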
Turning to “HFSPSLSISSLPSLCCLFFFIIFSTSLLWSFFPLPYLTSPYLTLPYTTFFLFP”, the “transcriptional activation domain activity” value was 48000.

For “ESSGGESEDDYVQEKRSSKPKRRGSRRGDEEEGGGGRKRAAQKKRKRKQPEEV”, the “transcriptional activation domain activity” value worked out at 34800.

For the sequence “GEVSEAEANGATTQAEDGATPAEGADKKKKKKKARKSKKAADAAAGGAEKPAE”, the “transcriptional activation domain activity” value stood at 17900.

Turning to “KPHHKWIVPTPFSSHAFHPVDGYAQSVPYHLFVFIFPMQRHLYLFLFVAVNFW”, the “transcriptional activation domain activity” value was 44100.

For “ARVQVNFWFFLFVYYGFYNLTALIWITKVFNLYSLNWWPSMLGFPLTISLIAI”, the “transcriptional activation domain activity” value was 75700.

On to “PLWLAPNLVTLLGFFCILFNIFLLVILVPDLVGPGPSWLYYSFGLGVWMYSTM”, for which the “transcriptional activation domain activity” value turned out to be 68600.

In the case of “TEVQNYPHALDLITDNLDDDFQDELRGSLDVQARLLYGLIHARWIVTARGLSK”, the “transcriptional activation domain activity” value was 40200.

On to “GLNPLRTTLMMSLNIIRSLFPAFRGYSQALIVDELQSLIASESFTWSRLLWLM”, for which the “transcriptional activation domain activity” value is 57900.

In the case of “KVEIRERDARSVVKLRSGANVPVTESTHGLDGGTGQDVHILVAQTKSKKFNRH”, the “transcriptional activation domain activity” value came out at 49800.

As for “IFFCHGRFLTSRSFWAFLLSLFLLIAPSILFLVFTCPWLWFHMSPSIPIVFSY”, the “transcriptional activation domain activity” value was found to be 51200.

Turning to “LDDLKLQPIINRYRNCKGLSPSDLRLSLDQLKCLNHQFSVIILRILFKHCPLY”, the “transcriptional activation domain activity” value was 72900.

Consider “MFAKILVLSWFDSIRWGLFLLLCVMGVFLLFDIPFSFSLLVFSAWYFLFFSRR”, for which the “transcriptional activation domain activity” value was 33800.

For “RLCYERFILCLICLPILYLPLVLILGIFIALSLTYIIFISFDPIISSMWYLAL”, the “transcriptional activation domain activity” value is 68400.

Consider “ILAGCCLGYACNKWGSITVFKYYGIPWLFLNHWFVMITYLHHTDPTIPHYRGK”, for which the “transcriptional activation domain activity” value was found to be 73500.

As for “MSLICIYQTIGTFAQICSWYFEMVHAGLSGSDIAQLARSNVNRIWWYKLLFTT”, the “transcriptional activation domain activity” value worked out at 44500.

On to “ALCRVAARALDTVRMLSTKVRLMLVHAFRRLEPLDVAFQSRSAVPMMSLGIQL”, for which the “transcriptional activation domain activity” value was found to be 66600.

Take “QLYSNNFQQSYPNGMVPGYYPKMPYNPMGGDPLLDQAFYGADDFFFPPEGCDN”: the “transcriptional activation domain activity” value came to 77800.

For the sequence “ALDSEQRRKGMSKPAPKKRGRKPNPNKKPKPPRDPNEPPKKRGRKPNPNKKVT”, the “transcriptional activation domain activity” value amounted to 42300.

For “RLYMLCTKIFLLLVGQRSEVGLTYASCITFMLCAAIPSESFVRNLVLLRVMLA”, the “transcriptional activation domain activity” value worked out at 58400.

Consider “MRLVYFCAGIYFLVADLVFSLFLFSFSSLLTLFFSPFFSLSLGLTLLEIQFTF”, for which the “transcriptional activation domain activity” value is 51800.

With “MFSFYMPTPPPFFPFPLVLFFFFFAVHRFHKISTFSTPFFFWIHFIVVLLFSF”, the “transcriptional activation domain activity” value amounted to 58600.

Regarding “TGVGLGVCARHEFVLANSAVDLQRGERYANMDYCAASLLRHICLLLFIVFLYD”, the “transcriptional activation domain activity” value came to 57700.

With “YLMHGLVLFSIVPSVFIPIYEYHQLSYIAASMICAFIYIIFAVICGWLFWWTV”, the “transcriptional activation domain activity” value stood at 40600.

Regarding “GSRGGRGGRGGSGGRGGRGGSSGGGGRESSGGRSERGGRRGGSGASGTKRLGK”, the “transcriptional activation domain activity” value was 15100.

In the case of “LLQKVAIQHYHTGLRALIPWSQLTVLVIASIPSQQCVRVLALAVNLLYCEFAI”, the “transcriptional activation domain activity” value came out at 67000.

Take “MNCRIVWNRCCGGLVPRFLLFLWCFGTVGYYRYFFSMGLGILLLWYILVLTTV”: the “transcriptional activation domain activity” value is 50600.

Regarding “LLRLLQCVFVAALLLVSKLCTFTEMMPDVVLRQFLVVAIDILFYGKLTIVPWN”, the “transcriptional activation domain activity” value was 54600.

As to “EGSEEKKERSRRHGDSDRRERRRHRSGSRSRDHDRDRERRHRRHRRSRSRDKE”, the “transcriptional activation domain activity” value was 13400.

“PAYEMCTYVWGFRGACLGLLWLIWFVVLYFVLRIRNIHSSFNERIESIIICFL”: the “transcriptional activation domain activity” value was 48800.

With “GFLLLLLLLFVFSLVVVHGIVSVSVFYQFFRPYCRFFLFYPYWFIYFLFCLLA”, the “transcriptional activation domain activity” value amounted to 58500.

In the case of “ALPERIKTFHAHGIFLALHCFLLQHGPQPISIWLLLALIKGRRRCLFPSIFFC”, the “transcriptional activation domain activity” value was 36200.

For “CLRYSLLLVSLGLGAEGSPPFLILFPWTPILLARFYCIGWWVRFGFIFVRLWP”, the “transcriptional activation domain activity” value worked out at 63200.

In the case of “DDDKKETGAFTHQWILLAKSRASHILLCITYFYASVLAVVSVGSVNWRNVAVK”, the “transcriptional activation domain activity” value worked out at 63000.

Take “GAGVGGATDGAEGKKGDGGGGKEKEREEGERRKKKKKRNKEGRDGGGGGTGGD”: the “transcriptional activation domain activity” value stood at 43300.

Consider “SALRYYFKVELYNLPARQWFERCFFTPLEVFNTAWLAYILLAQTTGSMVNCAC”, for which the “transcriptional activation domain activity” value is 38200.

As for “EGKPVAAEGVKDSWDASSDEEGSNPAPAPAPAAKAKPSQKANGTHVPISESQT”, the “transcriptional activation domain activity” value was determined as 40500.

Consider “MAVSIWDFVLCIFPHLHFLCLWIVFLSLFMFSYCFKFRFTPVLLTISLPRCFF”, for which the “transcriptional activation domain activity” value came to 51200.

“SVKHIITLFDDVRQNLAHAGLVALLLAQPHMIVLLTDVWLHMFRYLSAFEITI”: the “transcriptional activation domain activity” value stood at 52100.

Turning to “GRKILNVFALVFFFINLFLFCLFLALTMCRYAMFPRLWGLMLRDPVQSLYLGC”, the “transcriptional activation domain activity” value is 46700.

Turning to “MGGCICLRWSCVNVFFSFVYSFGLACCFTSWEYGGVYLGEGGCFLFYLSFFFL”, the “transcriptional activation domain activity” value came out at 50500.

On to “MGIRYHWLVFFCPFFSFTFASCFVLFVGMLFCFIILDYGCFSFLPLWFFFCPE”, for which the “transcriptional activation domain activity” value was found to be 18700.

In the case of “MGNVQRWAVAIKNVIAVLVVCLRFITDTFIIATSEYPRGGFLVLLHIRMLFML”, the “transcriptional activation domain activity” value was 81400.

Turning to “LGLTNLQLGDEMIGLGAVILIYVIARLILILLPLVALRSLPSGVFVDVNWSRY”, the “transcriptional activation domain activity” value came to 57800.

For the sequence “SREQPPSGQSRETLQKRVLHVRSVGRVTKGGKIRSASAIVVVGNGNGIGGYGE”, the “transcriptional activation domain activity” value came out at 38900.

“ARGMYLMVDVVANQFGILCSRADGTSIDDFDFSGLWPFSSSSYFHPMCWLYWL”: the “transcriptional activation domain activity” value turned out to be 64000.

“VGTVMFGLACASSTQVLLSLIGGWNVGFFISLLAVTIFAVLTKIIPWVWYIYS”: the “transcriptional activation domain activity” value worked out at 58300.

With “EDLRAAMEEEEEVEENEAEEEWVDVMKKHRVQASRLELLASGVGTGRTTSPVD”, the “transcriptional activation domain activity” value was determined as 15900.

As for “HLGHEAQASIEEEEEEEEEEEEEEEEEERRGEGGSVRKATHKIAAATVASVGT”, the “transcriptional activation domain activity” value was 33300.

For the sequence “LLRALSDLRRWRRKYTMLLELPDPFKSQRQHAHEYQLAIPLVEEAVLSFFLFL”, the “transcriptional activation domain activity” value was 57600.

With “TLRVSNLLCWFLLCLTSVPGLGIVYYTYFLLPDTPYCLWALCLYTKSFIAPLM”, the “transcriptional activation domain activity” value came to 63000.

Turning to “LPDLQWLVKFLVVAAHETGKNIVCRRAPGNLLSGNLVTLVSNVVLQRSPKRSY”, the “transcriptional activation domain activity” value came out at 47900.

Consider “MFFIIILFLVIYSGKISSNFLSFLYRLLLFMLISAQLSVLHCYCLYIFHRCYC”, for which the “transcriptional activation domain activity” value was determined as 30900.

Turning to “IALCEAVYIWLAKQLYQEFGWKIYKKIGADLIKRRMYRDYHICLMLLKLDLFF”, the “transcriptional activation domain activity” value was found to be 64200.

Turning to “EDRSEKRKRKRDDEVEPKKSKSKWKPEEKSDEDPKSTPKSNGGKRRRPERPEK”, the “transcriptional activation domain activity” value turned out to be 27300.

As for “DPEEVQGGKQRAEGNQGGGGRQGRRGPRGAEGQDHPGVQRPHRRPRRGHQAHL”, the “transcriptional activation domain activity” value came out at 33200.

In the case of “TSSSTAAPAVKRDEKPVKEKKPPAPQAPLEPGAVPEKRKRGRPRKVVSPPVPV”, the “transcriptional activation domain activity” value was found to be 49500.

On to “ATGAGSDANAGEDETFHKSGEATLSSQHRYKDAIDFRKIVLKLTDGVRWGLGI”, for which the “transcriptional activation domain activity” value was 37200.

In the case of “KCCVHVHQVYPYFFVEYFGKMRLRSGQLSALTFGAELQYTRVLIHVGVHFYGF”, the “transcriptional activation domain activity” value turned out to be 47400.

Turning to “IGETDAKAKKEKKEKKGKKAQEGAVVAETVDGGEEKKKKKKSKAKGETTADSM”, the “transcriptional activation domain activity” value is 35100.

On to “MSSLPLFPVLSSSLCFPLPPSLPLSSPPSVSPFPPFSLFPPLPLFSPFPPSIS”, for which the “transcriptional activation domain activity” value was found to be 38900.

For “MADATATGSTPPQAPLPEPKRHAACDECRLRKLKCSGTRPACERCAREHIACV”, the “transcriptional activation domain activity” value is 40100.

With “MVFFFFFFHSVEFHFFLWYLSFFRFFFVFLLFPWLDWIGRAGIGLELLLSLFI”, the “transcriptional activation domain activity” value worked out at 47400.

For the sequence “PQYLHLGYLGHHIAIDPIPHPVGTVYLPLPPDTFPTWCTVTACGWILLPLFPL”, the “transcriptional activation domain activity” value worked out at 29000.

Take “IGLPGFTWVYVARYGSVFNLLGLGVIGVVWNWGLAAVSISNYGNCWERLINWR”: the “transcriptional activation domain activity” value came to 54300.

As to “RKREEEDARVQEAALKEEEDARVREAARKEEEEEAERLKRRREEEDARVQEAA”, the “transcriptional activation domain activity” value was determined as 22400.

With “GGISKGENAHNFQNDTKKNMSTSNLFPFSFSNTDLTALFTHPEGPNCTNTNNG”, the “transcriptional activation domain activity” value worked out at 56600.

Consider “APATTAAATTSATPAVTSTLLAKPATTTTSTATPAPAAAGSLFGGAKAAGTTA”, for which the “transcriptional activation domain activity” value is 37000.

In the case of “GVEWWNVTSPEDSTYDPASLPLDVWDPLLPHDTGFSEIDITQCFFDPFFMPFL”, the “transcriptional activation domain activity” value amounted to 160000.

For the sequence “MQGGRLVIYLYYFLMEVFNVLFFLFLFRCWSLLPSALGGGLCYLFLVWGLLFC”, the “transcriptional activation domain activity” value turned out to be 67000.

On to “VREWHVDLSFSSFGKTLLRELESLLERVRANWLEEVTVRTIALICSRLLASTI”, for which the “transcriptional activation domain activity” value came to 60800.

For “VYMLTMESKKLLLRHVIDKLPGFLPTDLSGVTFLADWIHMQTGRIKKGTFNIV”, the “transcriptional activation domain activity” value was 59700.

For the sequence “HLIVSLSLSIFLFYLFWCLSIHVCVCLVSIYYILLLASLCFFLFFFNYLPILL”, the “transcriptional activation domain activity” value was 50300.

As to “EQGDTPAKKKARKGASGTGRKRKTVGDDEAAGGNEQEGQPKKKARREKAAATE”, the “transcriptional activation domain activity” value is 29300.

Turning to “APIDCPHRRLEVIMGLRPTRHIVLSILGLVITGFVSMDRADCIEFLLDLEPGD”, the “transcriptional activation domain activity” value was found to be 39800.
